{"source": "paper PMC6420622", "about": "“Mutations in the PKM2 exon-10 region are associated with reduced allostery and increased nuclear translocation” (Communications Biology, 2019)", "biological_target": "the molecule itself", "test": "crystal structure; PKM2 variant with Ser and FBP; hanging drop, 0.1 M Tris pH 7.5, 0.2 M NaCl, 14% PEG 3350, 4 °C; molecular replacement with PDB 4B2D", "data": [{"protein": "His-tagged PKM2 R399E (enzyme, Pyruvate kinase isoform M2 (PKM2), engineered mutant R399E; full-length cDNA in pET28a, site-directed mutagenesis; Crystallised with Ser and FBP (PDB 5X0I); also called His-PKM2 R399E; source: E. coli BL21 (DE3), purified (cobalt-chelated TALON resin)) not shown", "values": [{"measurement": "binding result", "value": "binds"}]}]}
